{
  "source": "paper PMC8427231",
  "about": "“Mechanism of dimerization and structural features of human LI-cadherin” (The Journal of Biological Chemistry, 2021)",
  "parents": {"B1": {"name": "human LI-cadherin EC1-4 [modified: N-glycans (four modelled on chain A, two on chain B of the crystal structure; sites not printed); N-glycans (four modelled on chain A, two on chain B of the crystal structure; sites not … (parent)", "chain": "QEGKFSGPLKPMTFSIYEGQEPSQIIFQFKANPPAVTFELTGETDNIFVIEREGLLYYNRALDRETRSTHNLQVAALDANGIIVEGPVPITIKVKDINDNRPTFLQSKYEGSVRQNSRPGKPFLYVNATDLDDPATPNGQLYYQIVIQLPMINNVMYFQINNKTGAISLTREGSQELNPAKNPSYNLVISVKDMGGQSENSFSDTTSVDIIVTENIWKAPKPVEMVENSTDPHPIKITQVRWNDPGAQYSLVDKEKLPRFPFSIDQEGDIYVTQPLDREEKDAYVFYAVAKDEYGKPLSYPLEIHVKVKDINDNPPTCPSPVTVFEVQENERLGNSIGTLTAHDRDEENTANSFLNYRIVEQTPKLPMDGLFLIQTYAGMLQLAKQSLKKQDTPQYNLTIEVSDKDFKTLCFVQINVID"}},
  "data": [
    {"variants_of": "B1", "test": "SEC-MALS", "conditions": "with itself; injected at 50 μM; read off a plot", "units": {"screen value": "kDa"}, "values": [
      {"variant": "chain 1 F202A", "screen value": 58}
    ]},
    {"variants_of": "B1", "test": "SEC-MALS", "conditions": "with itself; injected at 100 μM; read off a plot", "units": {"screen value": "kDa"}, "values": [
      {"variant": "chain 1 F202A", "screen value": 49.5},
      {"variant": "chain 1 F354A", "screen value": 55.1},
      {"variant": "chain 1 I147A", "screen value": 50.5},
      {"variant": "chain 1 L149A", "screen value": 51.1},
      {"variant": "chain 1 L333A", "screen value": 54.8},
      {"variant": "chain 1 N154A", "screen value": 53.1},
      {"variant": "chain 1 N200A", "screen value": 52.2},
      {"variant": "chain 1 N349A", "screen value": 52.4},
      {"variant": "chain 1 Q382A", "screen value": 52.7},
      {"variant": "chain 1 V188A", "screen value": 51.5},
      {"variant": "chain 1 Y377A", "screen value": 53.6}
    ]}
  ]
}
